Results published in the supplement of paper PMC10126150.
± gives the standard deviation of the averaged measurements.

Tested on: ATP
Assay: switch fluorescence ratio, 500 uM ATP over buffer (Cy3 cluster intensity, sum of 5 cycles each) (fold (ratio)); higher = stronger signal-on switching upon ATP binding; sequences stand for … in TCGTCGGCAGCGTCAGATGTGTATAAGAGACAGTTTTTTTTTTTTTTTTTTTTTTTTT…TC
Details: aptamer strand: ATP DNA aptamer (quencher-CACCTGGGGGAGTATTGCGGAGGAAGG + anchor), 100 nM annealed; ATP concentration: 500 uM
Outline: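 For every switch-domain sequence, the fluorescence ratio is the mean of per-cluster values, each being summed target-cycle Cy3 intensity over summed buffer-cycle Cy3 intensity. Clusters outside 100-1000 RFU were excluded. On a modified Illumina MiSeq flow-cell, the Cy3-labelled switching-strand clusters were annealed to 100 nM quencher-labelled ATP aptamer, imaged in selection buffer and then after 15 min with 500 uM ATP at 22 °C. Five such cycles were run, with NaOH stripping and re-annealing between them.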
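Also: ATP exposure 15 min at 22 °C before imaging.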

Sequence	switch fluorescence ratio
ATAGATGCTT	1.002 ± 0.003
ATAGATGTCT	0.992 ± 0.019
ATAGATTCTC	0.977 ± 0.025
ATAGCATGTA	0.991 ± 0.01
ATAGCGAGGA	1.05 ± 0.034
ATAGCGGACA	0.967 ± 0.033
ATAGCTAGTG	0.973 ± 0.013
ATAGCTGATT	0.983 ± 0.034
ATAGCTTGAG	1.01 ± 0.04
ATAGGAACTT	1.02 ± 0.013
ATAGGAGCAG	1.01 ± 0.048
ATAGGAGTCG	1 ± 0.02
ATAGGAGTTA	0.9814 ± 0.0071
ATAGGAGTTC	1.03 ± 0.023
ATAGGATTGC	0.982 ± 0.011
ATAGGATTTG	1.032 ± 0.0096
ATAGGATTTT	0.985 ± 0.034
ATAGGCACGG	1 ± 0.04
ATAGGCCGTA	1.03 ± 0.045
ATAGGCGCGG	1.01 ± 0.02
ATAGGCGGAA	1.02 ± 0.036
ATAGGGAATT	1 ± 0.024
ATAGGGGAAT	0.9872 ± 0.0072

Sequence	switch fluorescence ratio
ATAGGGGATT	1 ± 0.038
ATAGGGGGAG	1 ± 0.033
ATAGGGGGCT	0.9892 ± 0.0096
ATAGGGGGTT	0.98 ± 0.022
ATAGGGGTTT	1.013 ± 0.0055
ATAGGGTATA	0.981 ± 0.055
ATAGGGTGTG	1.02 ± 0.076
ATAGGTGTTG	1.02 ± 0.025
ATAGTACGCG	0.992 ± 0.03
ATAGTAGTCA	1.01 ± 0.024
ATAGTCAAAG	0.998 ± 0.034
ATAGTGACGT	0.9826 ± 0.0075
ATAGTGATAC	3.28 ± 0.057
ATAGTGGTGA	1.03 ± 0.048
ATAGTGTGGT	0.986 ± 0.083
ATAGTGTTGG	0.986 ± 0.029
ATAGTTATGT	1.0153 ± 0.00095
ATAGTTATTG	1.01 ± 0.022
ATAGTTCCAG	1.002 ± 0.0087
ATAGTTCCAT	0.9783 ± 0.005
ATAGTTCTAA	0.9939 ± 0.0048
ATAGTTCTAC	0.987 ± 0.0074
ATAGTTGGAT	0.98 ± 0.011

Sequence	switch fluorescence ratio
ATAGTTTGAC	1.008 ± 0.0015
ATATAAAAAA	1.01 ± 0.026
ATATAAGAAA	1.03 ± 0.041
ATATAAGAGC	1.03 ± 0.02
ATATAATAGG	0.9778 ± 0.0022
ATATACTATG	1.05 ± 0.026
ATATAGACGG	0.975 ± 0.024
ATATAGATTG	1.03 ± 0.038
ATATAGGCTA	0.995 ± 0.011
ATATAGGGGA	1.02 ± 0.051
ATATAGTGTA	0.99 ± 0.029
ATATATAAAT	0.978 ± 0.033
ATATATGCAG	0.986 ± 0.018
ATATATGGGG	0.987 ± 0.045
ATATCCCTGT	1.009 ± 0.0049
ATATCGAGGC	0.9803 ± 0.0089
ATATCGAGTT	0.9894 ± 0.00022
ATATCGGCGT	1.55 ± 0.82
ATATCTAGCC	0.9611 ± 0.0042
ATATCTTATG	0.964 ± 0.023
ATATGAATAG	1.01 ± 0.018
ATATGAGCAG	1.02 ± 0.024
ATATGATGTG	1.01 ± 0.03

Sequence	switch fluorescence ratio
ATATGCCCTA	0.9674 ± 0.0077
ATATGGATAC	1.05 ± 0.045
ATATGGATGA	0.96 ± 0.03
ATATGGATTG	1 ± 0.015
ATATGGCACG	1.032 ± 0.0014
ATATGGGAAA	0.978 ± 0.025
ATATGGGCTT	0.986 ± 0.014
ATATGGGGTG	1.05 ± 0.046
ATATGGGTTA	0.9912 ± 0.001
ATATGGTGAT	1 ± 0.057
ATATGTGTGA	0.968 ± 0.029
ATATGTGTTT	1.05 ± 0.018
ATATGTTTG	0.973 ± 0.047
ATATTAATTT	0.989 ± 0.023
ATATTAGACG	1.04 ± 0.036
ATATTATCAG	0.986 ± 0.014
ATATTCATCT	0.9861 ± 0.0056
ATATTCGGCG	0.975 ± 0.022
ATATTCGTG	0.985 ± 0.013
ATATTCTACT	1.025 ± 3.1e-05
ATATTCTAGA	0.989 ± 0.029
ATATTCTGGG	0.969 ± 0.015
ATATTGGCAT	1.02 ± 0.026

Sequence	switch fluorescence ratio
ATATTGGCGC	1.01 ± 0.019
ATATTGGGTA	0.997 ± 0.022
ATATTGTGAC	1.032 ± 0.004
ATATTTGATA	1.01 ± 0.039
ATATTTGGGC	0.975 ± 0.034
ATATTTGTGG	0.9843 ± 0.0088
ATATTTTAGG	0.996 ± 0.031
ATATTTTGGC	1.04 ± 0.034
ATATTTTTTT	1 ± 0.03
ATCAAAACTT	1.03 ± 0.013
ATCAAAATAA	1.06 ± 0.059
ATCAAAATTG	1.01 ± 0.027
ATCAAAGCGC	1.03 ± 0.023
ATCAAGCAGT	1.41 ± 0.47
ATCAAGCCAA	1.005 ± 0.0018
ATCAAGGGGT	1.01 ± 0.019
ATCAAGTCTG	0.9898 ± 0.0028
ATCAATTGGT	1.013 ± 0.0052
ATCAATTTAA	0.976 ± 0.039
ATCAATTTCT	0.974 ± 0.014
ATCACGGGAA	1.055 ± 0.0074
ATCACGGTGC	1.1 ± 0.061
ATCAGAACAA	1.01 ± 0.0069

Sequence	switch fluorescence ratio
ATCAGAGGGG	1.03 ± 0.019
ATCAGATAGC	0.977 ± 0.018
ATCAGCAACG	1.01 ± 0.026
ATCAGGAAAT	1.01 ± 0.017
ATCAGGCGTA	0.975 ± 0.038
ATCAGGGAGT	1 ± 0.011
ATCAGTGAGA	1.03 ± 0.032
ATCAGTGGGG	0.991 ± 0.042
ATCAGTGGTC	0.936 ± 0.021
ATCAGTTTTC	0.985 ± 0.0013
ATCATAGCCG	1.07 ± 0.14
ATCATGCATT	0.989 ± 0.025
ATCATGGTTG	1.002 ± 0.0063
ATCATGTACA	0.996 ± 0.024
ATCATTAACT	1.02 ± 0.013
ATCATTCTTC	0.977 ± 0.034
ATCATTGAA	0.9864 ± 0.0087
ATCATTTAAT	1.009 ± 0.0054
ATCATTTTTT	0.9877 ± 0.0061
ATCCCTTGAG	0.992 ± 0.032
ATCCGAGGGG	1.03 ± 0.05
ATCCGCGCGT	1 ± 0.014
ATCCGCTAGT	2.16 ± 0.19

Sequence	switch fluorescence ratio
ATCCGGACCC	1.08 ± 0.1
ATCCGGGGAA	1.02 ± 0.0032
ATCCGGTTAC	5.17 ± 0.68
ATCCGGTTAT	1.03 ± 0.016
ATCCGTGATA	1.77 ± 0.021
ATCCTAAATT	1.02 ± 0.0024
ATCCTAATGG	0.983 ± 0.012
ATCCTAGTTT	1.016 ± 0.00087
ATCCTATTT	1.01 ± 0.028
ATCCTATTTG	1.0056 ± 0.0008
ATCCTCGGCC	1.52 ± 0.039
ATCCTCGTAA	2.44 ± 0.32
ATCCTCTGCC	3.16 ± 0.72
ATCCTGCTTT	1.01 ± 0.069
ATCGAAACCC	1.05 ± 0.046
ATCGACATAG	0.9985 ± 0.006
ATCGACGGG	1.008 ± 0.0058
ATCGAGAGGG	1.01 ± 0.04
ATCGAGGCAC	1.056 ± 0.0061
